Test results reported in the supplement of paper PMC9170038.

Test system: MS2 coat protein
Test: apparent KD of MS2 coat protein; designed switch direction (-1 OFF switch, 1 ON switch): -1; higher = weaker reporter binding
Method in brief: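 Apparent KD, taken as the median over clusters for each design, was obtained by curve-fitting normalised cluster fluorescence. Designed RNA switches had been transcribed on Illumina chips by stalled E. coli RNA polymerase and titrated with SNAP-549-labelled MS2 coat protein, doubling from 0.7 or 1.5 nM to 3 µM.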

[1] = input ligand: microRNA oligo, concentration not stated
[2] = Eterna round: R95, input ligand: microRNA oligo, concentration not stated
[3] = Eterna round: R95, input ligand: FMN 200 uM
[4] = Eterna round: R95, input ligand: none

Sequence | apparent KD of MS2 coat protein (input ligand: FMN 200 uM) [nM] | apparent KD of MS2 coat protein (input ligand: none) [nM] | apparent KD of MS2 coat protein [1] [nM] | apparent KD of MS2 coat protein [2] [nM] | apparent KD of MS2 coat protein [3] [nM] | apparent KD of MS2 coat protein [4] [nM]
AAGACAAUUCUCUAGUGCAACAUGAGGAUCACCCAUGUCAUAGAAGCUUUUUGCUCGUGUUAAGUGACUCAAGAGAG [Eternabot (Original) Solution 41] (Eterna round: R97, puzzle: Sensor, turn-off variant 1) | 69.6 | 64.2 |  |  |  | 
ACGCAUUGCCUUUGGUAGUGCGUUACAUGAGGAUCACCCAUGUAGGAUAUGGUAGGCUUUGCUUACCAGAAGGACAUGAUAAUU [JL ENG3 1.02] (Eterna round: R96, puzzle: Exclusion NG 3) | 195 | 37.4 | 29.1 |  |  | 
GUGUAGACAGGAUAUGCUUUGAGCGUAUGAGAGUAGGCUCGACAUGAGGAUCACCCAUGUAGAAGGGUCUACAC [LRO-Excl2-03] (puzzle: Exclusion 2) |  |  |  | 10.1 |  | 
UGUACUAUGCGUGCUGACAUGCGUAGUGCAGCAGGUGUAACAUGAGGAUCACCCAUGUCCUCAUUUGCUCGUCUUAU [SL-sv3-2.06 JL mod] (puzzle: Sensor v3, turn-off variant 2) |  |  |  | 176 | 194 | 273
UUUUAACAUGAGGAUCACCCAUGUGAGGAUAUCGAAAUUUAUAUUAAUAUUUAUAUAUCGAGAAGGCACAUUUU [JMF 56] (puzzle: Exclusion 1) |  |  |  | 117 |  | 
GUCAGCUCGUCAGGAUAUAUAUACAUGAGGAUCACCCAUGUAAGAUCAGGCUUCGGCCAAUGUAUAUAGAAGGGACGAGCUGAC [ENG2/11-B1] (Eterna round: R96, puzzle: Exclusion NG 2) | 500 | 716 | 691 |  |  | 
CAGCCCUGAGGAUAUACAUGAGGAUCACCCAUGUGAAGAACGGGAAACGAAACCCUCAGUAGAAGGCGGGUCAU [Eternabot (Original) Solution 14] (Eterna round: R97, puzzle: Exclusion 3) | 131 | 58.9 |  |  |  | 
ACAAGCUUUUUCAUAUCUUACAUGAGGAUCACCCAUGUUUUUGCAAUUAUGUUUGGGCUCUUUUGUGCUCGUCUUAU [JR_STOV1_Sub049] (Eterna round: R97, puzzle: Sensor, turn-off variant 1) | 14.9 | 15.4 |  |  |  | 
AUUAUAUAGUAAGGAUAUAGAUUAUUAUUUUAACAUGAGGAUCACCCAUGUAGCCUUAUGUAUAACUAGAAGGUACAUUUAUUA [Title] (Eterna round: R96, puzzle: Exclusion NG 2) |  |  | 35.7 |  |  | 
GAUCCACAUGAGGAUCACCCAUGUGAGGAUAUGAUACUAUGUACUUCGGUACAUAGUAUCAGAAGGCACAUUGA [Ex1-3: 45] (puzzle: Exclusion 1) |  |  |  | 136 |  | 
ACUUACUGAGGAUAUACAUAGAUUUACAUGAGGAUCACCCAUGUUCCUCUAAGUAUAUAUGUAGAAGGCAGAAGGU [Mat - Exclusion 5 - JL Mod - D42] (Eterna round: R97, puzzle: Exclusion 5) | 177 | 214 |  |  |  | 
AAUUAGCAAGCGAGAUCCCACAUGAGGAUCACCCAUGUGCUCGUCUUAUAAAAGACUGUGACGAUAGUCACGGUCAC [Mat - Sensor, turn-off var - Eli Mod - D25] (Eterna round: R97, puzzle: Sensor, turn-off variant 1) | 15.3 | 12.3 |  |  |  | 
AGAGUGUGAGGAUAUACAUGAGGAUCACCCAUGUAAUAACAGGUUACGGGCGGCACCAGUAGAAGGCACUUGUC [Eternabot (L2) Solution 22] (Eterna round: R97, puzzle: Exclusion 3) | 42 | 28.2 |  |  |  | 
AAGAUGAGACAGGAUAUCCACAAAAUCUUGUCAGGAGAAGGGUCUACAUGAGGAUCACCCAUGUGAUUCUUGAA [Inriinvele] (puzzle: Exclusion 6) |  |  |  | 14.6 | 19.1 | 18.1
UUUAGUUCAGGAUAUGUAGAAAUUAACAUGAGGAUCACCCAUGUAGAUCCUGAAUUAACUACAGAAGGGAACAUUU [JL-ex5-4.43 Brourd mod] (Eterna round: R97, puzzle: Exclusion 5) | 51.3 | 15.7 |  |  |  | 
AGUAGUAGUAUCCGAUCUUACAUGAGGAUCACCCAUGUAUCUAGACGUGCACGCGAUGCUCGUCAGACUACCAGAUG [salish99_TOv1_r3_052] (puzzle: Sensor v3, turn-off variant 1) |  |  |  | 66.3 | 49.3 | 60.1
ACAUGAGGAUCACCCAUGUAAUCAUGAUGGCUGAUGUAGAGGUAGGAUAUGUGUGGCUUUCUAUCACAGAAGGACCAAGACUGG [Deportation 38 - Jieux - Exclusion NG 3] (Eterna round: R96, puzzle: Exclusion NG 3) | 46.3 | 59.8 | 46.6 |  |  | 
UAUGUUGUUGUGAGGAUAUACUUAGUUUGACCGUAGUAGAAGGCACAUGAGGAUCACCCAUGUAGAUUUUUGGU [JR_BME4_Sub007] (puzzle: Brourd's mod of Exclusion 4) |  |  |  | 9.49 |  | 

Sequence | apparent KD of MS2 coat protein (input ligand: FMN 200 uM) [nM] | apparent KD of MS2 coat protein (input ligand: none) [nM] | apparent KD of MS2 coat protein [1] [nM] | apparent KD of MS2 coat protein [2] [nM] | apparent KD of MS2 coat protein [3] [nM] | apparent KD of MS2 coat protein [4] [nM]
CUAUAGUAUGUAGGAUAUCGGUCAGUUUCUGAUCGAGAAGGACAUGAGGAUCACCCAUGUAAGGCUACCGGUUUCUGGUGGCCG [JL ENG1 3.54] (Eterna round: R96, puzzle: Exclusion NG 1) | 61.6 | 23.6 | 18.5 |  |  | 
GGUUGGCGAGGAUAUACAUGAGGAUCACCCAUGUGAGAGAAAAAAGUGAGCAAGAAAAGUAGAAGGCGCUGACG [salish99_ex3_r3_030] (Eterna round: R96, puzzle: Exclusion 3) | 209 | 59.9 | 110 |  |  | 
GGUCUACAUGAGGAUCACCCAUGUAAGGAUAUCGUCACUGGAGCCUCGGCUCCAGUGACGAGAAGGUGCAUAAU [E1/11-A2] (Eterna round: R97, puzzle: Exclusion 1) | 48.9 | 36.6 |  |  |  | 
CUAAUACAUCAGGAUAUGAUAGCCUAUAGCAUAUCAGAAGGGAUGACAUGAGGAUCACCCAUGUCAAAGGGUGA [eternacac ex6r4 sub19] (Eterna round: R97, puzzle: Exclusion 6) | 396 | 444 |  |  |  | 
GGGAUGUGAGGAUAUCGAGGUGCAAAGCACCUAAAAGAAAACGAGAAGGCACAUGAGGAUCACCCAUGUAAUAC [Xeinle] (puzzle: Exclusion 4) |  |  |  | 26 | 105 | 26
GGUCAGACGGUAGGAUAUCCAUAUCGAGUGACCCUUUUAUAACAUGAGGAUCACCCAUGUCGGUGGGAGAAGGGCCGUACGGCG [salish99_ExNG02_R04_003] (Eterna round: R96, puzzle: Exclusion NG 2) | 445 | 401 | 304 |  |  | 
CUUAUGUGAGGAUAUGCCUGGCCGUGAGGCCAAAUUGAAUUGCAGAAGGCACAUGAGGAUCACCCAUGUGCGGG [jl-ex4-4.66 ViennaUCT mod] (Eterna round: R97, puzzle: Exclusion 4) | 201 | 50.2 |  |  |  | 
CCUCUGUAAGGAUAUACGGAGACGGCUGGAAUCAGUGGAAAGUAGAAGGUACAUGAGGAUCACCCAUGUGAGAC [Anceleso] (puzzle: Exclusion 4) |  |  |  | 20.2 |  | 
GCCGUAAAUGUGAGGAUAUACCUAUGGAUACAUAGGUAGAAGGCACAUGAGGAUCACCCAUGUUCCAAAUCGGC [Eli bmx4 4.07] (Eterna round: R97, puzzle: Brourd's mod of Exclusion 4) | 47.9 | 132 |  |  |  | 
AAGUCGAGCGUGAGGAUAUCGUCCGAACGACCGAACGAGAAGGCACAUGAGGAUCACCCAUGUGAUUCAGCUCA [Brourd's EX4 #48] (Eterna round: R97, puzzle: Brourd's mod of Exclusion 4) | 16.8 | 14.2 |  |  |  | 
GCACGGAUGGUAGGAUAUCAUUGCGAUUAGCUAUGAGAAGGGCCACAUGAGGAUCACCCAUGUCCUCUAAUUAGCCUUCCGUGC [Eli exng1 - 018] (Eterna round: R96, puzzle: Exclusion NG 1) |  |  | 82.3 |  |  | 
AGGUCACAUGAGGAUCACCCAUGUGAGGAUAUAGACUCAAGAGCUUCGGCUCUCAAGUUUAGAAGGCGCUAUGA [EX1 #51] (Eterna round: R97, puzzle: Exclusion 1) | 25.8 | 26.3 |  |  |  | 
AGAGGACAUGAGGAUCACCCAUGUAAGGAUAUGCGGAGAGUUUGGAGAGGUCGGGUAGGCAGAAGGUACAGGAG [JR_Exclu1_Sub050] (Eterna round: R96, puzzle: Exclusion 1) | 48 | 86.4 | 41 |  |  | 
UGAGGACAUGAGGAUCACCCAUGUAAGGAUAUGCGGAGAGAUUGGAGAGGUCGAGGAGGCAGAAGGUACAGGAC [JR_Exclu1_Sub049] (puzzle: Exclusion 1) |  |  |  | 68 |  | 
CCAACGUGAGGAUAUGCAAUGCUAGCGGGAUCUUCUCUCCAACAUGAGGAUCACCCAUGUAGAAGGCGCUGUUG [Eternabot (L1) Solution 38] (Eterna round: R97, puzzle: Exclusion 2) | 198 | 97.1 |  |  |  | 
GAAAAGGUAGGAUAUACGAAAAAAAAGGGUAGAAAAAAAACACAUGAGGAUCACCCAUGUAGAAGGACCAAAAA [salish99_ex2_r3_050] (puzzle: Exclusion 2) |  |  |  | 45 | 98.9 | 34.2
CGCAAUGGAGGAUAUACAUGAGGAUCACCCAUGUGGUCCUUGAGAUUCCAAAAGUCAAGUAGAAGGUCAGCGGC [Eternabot (L1) Solution 45] (Eterna round: R97, puzzle: Exclusion 3) | 1210 | 1600 |  |  |  | 
